From patent publication US7109015B2, “Removal of N-terminal methionine from proteins by engineered methionine aminopeptidase” (Academia Sinica, priority 2004, dated 2006)
Several values for one entry are separate records, joined by “and”; a condition that tells them apart may be missing. Equal values may be shown once. Read-outs that look alike come from different tables or passages of the source.

Assays:
[1] = test system: Met-tagged onconase; assay: In vivo catalytic activity of MetAPs co-expressed with Met-tagged onconase in E. coli BL21(DE3); N-terminus by Edman degradation; type: cell-based
From the text: Residues Tyr168, Met206 and Gln233 in the putative substrate-binding site of E. coli MetAP were mutated by site-directed mutagenesis based on the crystal structure and amino acid sequence alignment of MetAPs (Ben-Bassat et al., 1987; Lowther et al., 1999; Walker et al., 1999). For the expression of secretory ribonucleases, the ribonuclease gene was cloned and expressed as described previously (Huang et al., 1998).
Most of the co-expressed target protein, e.g., onconase or RC-RNase L1, existed in insoluble cell lysate. They were denatured, renatured and purified as described previously (Liao et al., 2003). The purified ribonucleases were stored in 20 mM sodium phosphate, pH 7.0, for pyroglutamate formation at the N-terminus. Alternatively, the ribonuclease secreted into culture medium through pe1B system was concentrated and purified to electrophoretical homogeneity at a yield of 1˜5 mg per 1 liter of culture (Huang et al., 1998).

[2] = test system: synthetic oligopeptides; type: biochemical; conditions: for Specific activity (unit/mg): 4 mM oligopeptide, pH 7.5, 37° C.
Method: The oligopeptide substrates used in this experiment were synthesized on the 432A Synergy peptide synthesizer (Applied Biosystems, Foster, Calif., USA). The enzymatic activity of purified MetAP was assayed as described by Ben-Bassat et al., 1987. Briefly, the diluted MetAP enzyme in 10 μl was added to 90 μl of the substrate solution containing 4 mM oligopeptide, 0.1 M potassium phosphate buffer, pH 7.5 and 0.2 mM CoCl2, incubated at 37° C. for 10 min and stopped in boiling water for 2 min. After addition of 0.9 ml of color development mixture containing 0.2 mg of L-amino acid oxidase, 0.03 mg of horseradish peroxidase and 0.2 mg of o-dianisidine in 0.1 M Tris-HCl, pH 7.4, the mixtures were incubated for 10 min at 37° C., and the optical density at 440 nm was recorded. One unit of activity is defined as 1 μmol of amino acids produced per min under the assay conditions and the pure Met was used as standard. The N-terminal residues of the MetAP-treated oligopeptide were further verified by Edman degradation.

[3] = substrate MAA-Onc, in vivo in E. coli
[4] = substrate MAG-Onc, in vivo in E. coli
[5] = substrate MAP-Onc, in vivo in E. coli
[6] = substrate MLA-Onc, in vivo in E. coli
[7] = substrate MLG-Onc, in vivo in E. coli
[8] = substrate MLH-Onc, in vivo in E. coli
[9] = substrate MLL-Onc, in vivo in E. coli
[10] = substrate MLN-Onc, in vivo in E. coli
[11] = substrate MLS-Onc, in vivo in E. coli
[12] = substrate MLV-Onc, in vivo in E. coli
[13] = substrate MQA-Onc, in vivo in E. coli
[14] = substrate MQM-Onc, in vivo in E. coli
[15] = substrate MQN-Onc, in vivo in E. coli
[16] = substrate MQT-Onc, in vivo in E. coli

B1: MetAP-*TG (protein)
chain: AISIKTPEDIEKMRVAGRLAAEVLEMIEPYVKPGVSTGELDRICNDYIVNEQHAVSACLGYHGYPKSVCISINEVVCHGIPDDAKLLKDGDIVNIDVTVIKDGFHGDTSKMFIVGKPTIMGERLCRITQESLYLALRMVKPGINLREIGAAIQKFVEAEGFSVVREYCGHGIGRGFHEEPQVLHYDSRETNVVLKPGMTFTIEPTVNAGKKEIRTMKDGWTVKTKDRSLSAGYEHTIVVTDNGCEILTLRKDDTIPAIISHDE
- Lower efficiency of Met removal with MetAP and target on separate vectors ([1]; MQD-initiated onconase or GST, pET29b/pET22b versus same vector): 10–15 % less
- Catalytic activity (%): percent of penultimate residue removed [1, 3]: 25%
- Catalytic activity (%): removal of N-terminal Met [1, 3]: 100%
- Catalytic activity (%): removal of N-terminal Met ([1]; substrate MAD-Onc, in vivo in E. coli): 99% and 100%
- Catalytic activity (%): removal of N-terminal Met ([1]; substrate MAE-Onc, in vivo in E. coli): 96%
- Catalytic activity (%): removal of N-terminal Met ([1]; substrate MAF-Onc, in vivo in E. coli): 100%
- Catalytic activity (%): percent of penultimate residue removed [1, 4]: 57%
- Catalytic activity (%): removal of N-terminal Met [1, 4]: 80%
- Catalytic activity (%): removal of N-terminal Met ([1]; substrate MAK-Onc, in vivo in E. coli): 100%
- Catalytic activity (%): removal of N-terminal Met ([1]; substrate MAL-Onc, in vivo in E. coli): 100%
- Catalytic activity (%): removal of N-terminal Met ([1]; substrate MAM-Onc, in vivo in E. coli): 96%
- Catalytic activity (%): removal of N-terminal Met ([1]; substrate MAN-Onc, in vivo in E. coli): 100%
- Catalytic activity (%): percent of penultimate residue removed [1, 5]: 38%
- Catalytic activity (%): removal of N-terminal Met [1, 5]: 72%
- Catalytic activity (%): removal of N-terminal Met ([1]; substrate MAQ-Onc, in vivo in E. coli): 97%
- Catalytic activity (%): removal of N-terminal Met ([1]; substrate MAR-Onc, in vivo in E. coli): 94%
- Catalytic activity (%): removal of N-terminal Met ([1]; substrate MAV-Onc, in vivo in E. coli): 100%
- Catalytic activity (%): removal of N-terminal Met ([1]; substrate MDD-Onc, in vivo in E. coli): 68%
- Catalytic activity (%): removal of N-terminal Met ([1]; substrate MED-Onc, in vivo in E. coli): 33%
- Catalytic activity (%): removal of N-terminal Met ([1]; substrate MFA-Onc, in vivo in E. coli): 2%
- Catalytic activity (%): removal of N-terminal Met ([1]; substrate MFD-Onc, in vivo in E. coli): 5%
- Catalytic activity (%): removal of N-terminal Met ([1]; substrate MGD-Onc, in vivo in E. coli): 95%
- Catalytic activity (%): removal of N-terminal Met ([1]; substrate MHD-Onc, in vivo in E. coli): 92%
- Catalytic activity (%): removal of N-terminal Met ([1]; substrate MIA-Onc, in vivo in E. coli): 36%
- Catalytic activity (%): removal of N-terminal Met ([1]; substrate MID-Onc, in vivo in E. coli): 22%
- Catalytic activity (%): removal of N-terminal Met ([1]; substrate MKA-Onc, in vivo in E. coli): 2%
- Catalytic activity (%): removal of N-terminal Met ([1]; substrate MKD-Onc, in vivo in E. coli): 3%
- Catalytic activity (%): percent of penultimate residue removed [1, 6]: 100(100) %
- Catalytic activity (%): removal of N-terminal Met [1, 6]: 100(100) %
- Catalytic activity (%): removal of N-terminal Met ([1]; substrate MLD-Onc, in vivo in E. coli): 86% and 90%
- Catalytic activity (%): percent of penultimate residue removed [1, 7]: 100(100) %
- Catalytic activity (%): removal of N-terminal Met [1, 7]: 100(100) %
- Catalytic activity (%): percent of penultimate residue removed [1, 8]: 36%
- Catalytic activity (%): removal of N-terminal Met [1, 8]: 75%
- Catalytic activity (%): percent of penultimate residue removed [1, 9]: 24%
- Catalytic activity (%): removal of N-terminal Met [1, 9]: 88%
- Catalytic activity (%): removal of N-terminal Met ([1]; substrate MLM-Onc, in vivo in E. coli): 100%
- Catalytic activity (%): percent of penultimate residue removed [1, 10]: 58%
- Catalytic activity (%): removal of N-terminal Met [1, 10]: 92%
- Catalytic activity (%): removal of N-terminal Met ([1]; substrate MLP-Onc, in vivo in E. coli): 5%
- Catalytic activity (%): percent of penultimate residue removed [1, 11]: 59%
- Catalytic activity (%): removal of N-terminal Met [1, 11]: 82%
- Catalytic activity (%): removal of N-terminal Met ([1]; substrate MLT-Onc, in vivo in E. coli): 91%
- Catalytic activity (%): percent of penultimate residue removed [1, 12]: 27%
- Catalytic activity (%): removal of N-terminal Met [1, 12]: 76%
- Catalytic activity (%): removal of N-terminal Met ([1]; substrate MMD-Onc, first Met, in vivo in E. coli): 100%
- Catalytic activity (%): percent of penultimate residue removed ([1]; substrate MMD-Onc, second Met, in vivo in E. coli): 73%
- Catalytic activity (%): removal of N-terminal Met ([1]; substrate MND-Onc, in vivo in E. coli): 85%
- Catalytic activity (%): removal of N-terminal Met ([1]; substrate MPD-Onc, in vivo in E. coli): 93%
- Catalytic activity (%): percent of penultimate residue removed [1, 13]: 100(100) %
- Catalytic activity (%): removal of N-terminal Met [1, 13]: 100(100) %
- Catalytic activity (%): removal of N-terminal Met ([1]; substrate MQD-Onc, in vivo in E. coli): 91% and 90%
- Catalytic activity (%): removal of N-terminal Met ([1]; substrate MQD-Onc, in vivo in E. coli, listed as MetAP-M206T-Q233G): 91%
- Catalytic activity (%): removal of N-terminal Met ([1]; substrate MQDWL (SEQ ID NO:10)-Onc, solubility −, same vector): 91%
- Catalytic activity (%): removal of N-terminal Met ([1]; substrate MQDWL (SEQ ID NO:10)-Onc, solubility −, target in pET22b co-transformed with MetAP in pET29b): 80%
- Catalytic activity (%): removal of N-terminal Met ([1]; substrate MQE-Onc, in vivo in E. coli): 71%
- Catalytic activity (%): removal of N-terminal Met ([1]; substrate MQF-Onc, in vivo in E. coli): 80%
- Catalytic activity (%): removal of N-terminal Met ([1]; substrate MQK-Onc, in vivo in E. coli): 78%
- Catalytic activity (%): percent of penultimate residue removed [1, 14]: 59%
- Catalytic activity (%): removal of N-terminal Met [1, 14]: 100%
- Catalytic activity (%): percent of penultimate residue removed [1, 15]: 65%
- Catalytic activity (%): removal of N-terminal Met [1, 15]: 100%
- Catalytic activity (%): removal of N-terminal Met ([1]; substrate MQP-Onc, in vivo in E. coli): 25%
- Catalytic activity (%): removal of N-terminal Met ([1]; substrate MQR-Onc, in vivo in E. coli): 83%
- Catalytic activity (%): percent of penultimate residue removed [1, 16]: 26%
- Catalytic activity (%): removal of N-terminal Met [1, 16]: 76%
- Catalytic activity (%): removal of N-terminal Met ([1]; substrate MQW-Onc, in vivo in E. coli): 95%
- Catalytic activity (%): removal of N-terminal Met ([1]; substrate MRA-Onc, in vivo in E. coli): 2%
- Catalytic activity (%): removal of N-terminal Met ([1]; substrate MRD-Onc, in vivo in E. coli): 2%
- Catalytic activity (%): removal of N-terminal Met ([1]; substrate MSD-Onc, in vivo in E. coli): 99%
- Catalytic activity (%): removal of N-terminal Met ([1]; substrate MTD-Onc, in vivo in E. coli): 85%
- Catalytic activity (%): removal of N-terminal Met ([1]; substrate MVD-Onc, in vivo in E. coli): 80%
- Catalytic activity (%): removal of N-terminal Met ([1]; substrate MWA-Onc, in vivo in E. coli): 2%
- Catalytic activity (%): removal of N-terminal Met ([1]; substrate MWD-Onc, in vivo in E. coli): 2%
- Catalytic activity (%): removal of N-terminal Met ([1]; substrate MWD-Onc, in vivo in E. coli, listed as *TG): inactive
- Catalytic activity (%): removal of N-terminal Met ([1]; substrate MYA-Onc, in vivo in E. coli): 8%
- Catalytic activity (%): removal of N-terminal Met ([1]; substrate MYD-Onc, in vivo in E. coli): 1%
- Catalytic activity (%): removal of N-terminal Met ([1]; substrate MYD-Onc, in vivo in E. coli, listed as *TG): inactive
- In vitro catalytic activity ([2]; oligopeptides ranging from tetra- to dodecapeptides with Ala at the penultimate site): high catalytic activity
- Specific activity (unit/mg) ([2]; substrate MADY (SEQ ID NO:7)): 72 ± 10 unit/mg
- Specific activity (unit/mg) ([2]; substrate MADYLT (SEQ ID NO:8)): 116 ± 4 unit/mg
- Specific activity (unit/mg) ([2]; substrate MQDYLT (SEQ ID NO:9)): 0.42 ± 0.02 unit/mg
- Specific activity (unit/mg) ([2]; substrate […] (SEQ ID NO:5)): 73 ± 15 unit/mg
- Specific activity (unit/mg) ([2]; substrate […] (SEQ ID NO:6)): 0.59 ± 0.07 unit/mg
